Assay results reported in patent US20230407373A1 (priority 2020, published 2023).
Where two headings read alike, the source gives them in different places.

Assays:
HCoV-OC43 gRNA and sgRNA = assay type: binding; conditions: for target (unweighted spectral count, OC43 Probe II capture): tested against no-probe control, FDR<10%; for target (unweighted spectral count, OC43 Probe II) / background (unweighted spectral count, no-probe control): type n_48_v, 48 hpi; for target (unweighted spectral count, OC43 Probe II): OC43 Probe II capture on infected cells; for background (unweighted spectral count, no-probe control): no-probe control on infected cells; for target (spectral count) / background (spectral count): type s_36_m, Probe II; for target (spectral count): HCoV-OC43-infected HCT-8 cells; for background (spectral count): uninfected-probe control
gRNA of HCoV-OC43 = assay type: binding; conditions: for target (spectral count, OC43 Probe I RNP capture) / background (spectral count, no-probe control): type n_48_v: 48 hours post-infection; for target (spectral count, OC43 Probe I RNP capture): infected cells, unweighted spectral count; for background (spectral count, no-probe control): no-probe control on infected cells

Molecule | target (unweighted spectral count, OC43 Probe II capture) (HCoV-OC43 gRNA and sgRNA; 24 hpi, type n_24_v) | target (unweighted spectral count, OC43 Probe II capture) (HCoV-OC43 gRNA and sgRNA; 36 hpi, type n_36_v) | target (spectral count, OC43 Probe I RNP capture) (gRNA of HCoV-OC43) | background (spectral count, no-probe control) (gRNA of HCoV-OC43) | target (unweighted spectral count, OC43 Probe II) (HCoV-OC43 gRNA and sgRNA) | background (unweighted spectral count, no-probe control) (HCoV-OC43 gRNA and sgRNA) | target (spectral count) (HCoV-OC43 gRNA and sgRNA; 36 hpi) | background (spectral count) (HCoV-OC43 gRNA and sgRNA; 36 hpi) | target (spectral count) (gRNA of HCoV-OC43; type g_36_m, HCoV-OC43-infected HCT-8 cells, 36 hpi, Probe I) | background (spectral count) (gRNA of HCoV-OC43; type g_36_m, uninfected-probe control, 36 hpi, Probe I)
RBM4 (protein, UniProt Q9BWF3 1-364, looked up) RNA-binding protein 4: MVKLFIGNLPREATEQEIRSLFEQYGKVLECDIIKNYGFVHIEDKTAAEDAIRNLHHYKLHGVNINVEASKNKSKTSTKLHVGNISPTCTNKELRAKFEEYGPVIECDIVKDYAFVHMERAEDAVEAIRGLDNTEFQGKRMHVQLSTSRLRTAPGMGDQSGCYRCGKEGHWSKECPIDRSGRVADLTEQYNEQYGAVRTPYTMSYGDSLYYNNAYGALDAYYKRCRAARSYEAVAAAAASVYNYAEQTLSQLPQVQNTAMASHLTSTSLDPYDRHLLPTSGAAATAAAAAAAAAAVTAASTSYYGRDRSPLRRATAPVPTVGEGYGYGHESELSQASAAARNSLYDMARYEREQYADRARYSAF | 4 | 4 | 6 | 1 |  |  |  |  |  | 
APOBEC3F (protein, UniProt Q8IUX4 1-373, looked up) DNA dC->dU-editing enzyme …: MKPHFRNTVERMYRDTFSYNFYNRPILSRRNTVWLCYEVKTKGPSRPRLDAKIFRGQVYSQPEHHAEMCFLSWFCGNQLPAYKCFQITWFVSWTPCPDCVAKLAEFLAEHPNVTLTISAARLYYYWERDYRRALCRLSQAGARVKIMDDEEFAYCWENFVYSEGQPFMPWYKFDDNYAFLHRTLKEILRNPMEAMYPHIFYFHFKNLRKAYGRNESWLCFTMEVVKHHSPVSWKRGVFRNQVDPETHCHAERCFLSWFCDDILSPNTNYEVTWYTSWSPCPECAGEVAEFLARHSNVNLTIFTARLYYFWDTDYQEGLRSLSQEGASVEIMGYKDFKYCWENFVYNDDEPFKPWKGLKYNFLFLDSKLQEILE |  | 4 | 6 | 1 | 6 | 1 |  |  |  | 
POP1: host protein, UniProt Q99575 (protein, UniProt Q99575 1-1024, looked up) Ribonucleases P/MRP protein …: MSNAKERKHAKKMRNQPTNVTLSSGFVADRGVKHHSGGEKPFQAQKQEPHPGTSRQRQTRVNPHSLPDPEVNEQSSSKGMFRKKGGWKAGPEGTSQEIPKYITASTFAQARAAEISAMLKAVTQKSSNSLVFQTLPRHMRRRAMSHNVKRLPRRLQEIAQKEAEKAVHQKKEHSKNKCHKARRCHMNRTLEFNRRQKKNIWLETHIWHAKRFHMVKKWGYCLGERPTVKSHRACYRAMTNRCLLQDLSYYCCLELKGKEEEILKALSGMCNIDTGLTFAAVHCLSGKRQGSLVLYRVNKYPREMLGPVTFIWKSQRTPGDPSESRQLWIWLHPTLKQDILEEIKAACQCVEPIKSAVCIADPLPTPSQEKSQTELPDEKIGKKRKRKDDGENAKPIKKIIGDGTRDPCLPYSWISPTTGIIISDLTMEMNRFRLIGPLSHSILTEAIKAASVHTVGEDTEETPHRWWIETCKKPDSVSLHCRQEAIFELLGGITSPAEIPAGTILGLTVGDPRINLPQKKSKALPNPEKCQDNEKVRQLLLEGVPVECTHSFIWNQDICKSVTENKISDQDLNRMRSELLVPGSQLILGPHESKIPILLIQQPGKVTGEDRLGWGSGWDVLLPKGWGMAFWIPFIYRGVRVGGLKESAVHSQYKRSPNVPGDFPDCPAGMLFAEEQAKNLLEKYKRRPPAKRPNYVKLGTLAPFCCPWEQLTQDWESRVQAYEEPSVASSPNGKESDLRRSEVPCAPMPKKTHQPSDEVGTSIEHPREAEEVMDAGCQESAGPERITDQEASENHVAATGSHLCVLRSRKLLKQLSAWCGPSSEDSRGGRRAPGRGQQGLTREACLSILGHFPRALVWVSLSLLSKGSPEPHTMICVPAKEDFLQLHEDWHYCGPQESKHSDPFRSKILKQKEKKKREKRQKPGRASSDGPAGEEPVAGQEALTLGLWSGPLPRVTLHCSRTLLGFVTQGDFSMAVGCGEALGFVSLTGLLDMLSSQPAAQRGLVLLRPPASLQYRFARIAIEV |  | 8 | 6 | 1 | 7 | 1 | 8 | 1 |  | 
RRBP1: host protein, UniProt Q9P2E9 (protein, UniProt Q9P2E9 1-1410, looked up) Ribosome-binding protein 1: MDIYDTQTLGVVVFGGFMVVSAIGIFLVSTFSMKETSYEEALANQRKEMAKTHHQKVEKKKKEKTVEKKGKTKKKEEKPNGKIPDHDPAPNVTVLLREPVRAPAVAVAPTPVQPPIIVAPVATVPAMPQEKLASSPKDKKKKEKKVAKVEPAVSSVVNSIQVLTSKAAILETAPKEVPMVVVPPVGAKGNTPATGTTQGKKAEGTQNQSKKAEGAPNQGRKAEGTPNQGKKTEGTPNQGKKAEGTPNQGKKAEGTPNQGKKAEGAQNQGKKVDTTPNQGKKVEGAPTQGRKAEGAQNQAKKVEGAQNQGKKAEGAQNQGKKGEGAQNQGKKAEGAQNQGKKAEGAQNQGKKAEGAQNQGKKAEGAQNQGKKAEGAQNQGKKAEGAQNQGKKVEGAQNQGKKAEGAQNQGKKAEGAQNQGKKAEGAQNQGKKAEGAQNQGKKAEGAQNQGKKAEGAQNQGKKAEGAQNQGKKVEGAQNQGKKAEGAQNQGKKAEGAQNQGKKAEGAQNQGQKGEGAQNQGKKTEGAQGKKAERSPNQGKKGEGAPIQGKKADSVANQGTKVEGITNQGKKAEGSPSEGKKAEGSPNQGKKADAAANQGKKTESASVQGRNTDVAQSPEAPKQEAPAKKKSGSKKKGEPGPPDADGPLYLPYKTLVSTVGSMVFNEGEAQRLIEILSEKAGIIQDTWHKATQKGDPVAILKRQLEEKEKLLATEQEDAAVAKSKLRELNKEMAAEKAKAAAGEAKVKKQLVAREQEITAVQARMQASYREHVKEVQQLQGKIRTLQEQLENGPNTQLARLQQENSILRDALNQATSQVESKQNAELAKLRQELSKVSKELVEKSEAVRQDEQQRKALEAKAAAFEKQVLQLQASHRESEEALQKRLDEVSRELCHTQSSHASLRADAEKAQEQQQQMAELHSKLQSSEAEVRSKCEELSGLHGQLQEARAENSQLTERIRSIEALLEAGQARDAQDVQASQAEADQQQTRLKELESQVSGLEKEAIELREAVEQQKVKNNDLREKNWKAMEALATAEQACKEKLLSLTQAKEESEKQLCLIEAQTMEALLALLPELSVLAQQNYTEWLQDLKEKGPTLLKHPPAPAEPSSDLASKLREAEETQSTLQAECDQYRSILAETEGMLRDLQKSVEEEEQVWRAKVGAAEEELQKSRVTVKHLEEIVEKLKGELESSDQVREHTSHLEAELEKHMAAASAECQNYAKEVAGLRQLLLESQSQLDAAKSEAQKQSDELALVRQQLSEMKSHVEDGDIAGAPASSPEAPPAEQDPVQLKTQLEWTEAILEDEQTQRQKLTAEFEEAQTSACRLQEELEKLRTAGPLESSETEEASQLKERLEKEKKLTSDLGRAATRLQELLKTTQEQLAREKDTVKKLQEQLEKAEDGSSSKEGTSV | 10 | 16 | 17 | 5 | 32 | 5 | 16 | 1 | 22 | 1
SF3B2 (protein, UniProt Q13435 1-895, looked up) Splicing factor 3B subunit 2: MATEHPEPPKAELQLPPPPPPGHYGAWAAQELQAKLAEIGAPIQGNREELVERLQSYTRQTGIVLNRPVLRGEDGDKAAPPPMSAQLPGIPMPPPPLGLPPLQPPPPPPPPPPGLGLGFPMAHPPNLGPPPPLRVGEPVALSEEERLKLAQQQAALLMQQEERAKQQGDHSLKEHELLEQQKRAAVLLEQERQQEIAKMGTPVPRPPQDMGQIGVRTPLGPRVAAPVGPVGPTPTVLPMGAPVPRPRGPPPPPGDENREMDDPSVGPKIPQALEKILQLKESRQEEMNSQQEEEEMETDARSSLGQSASETEEDTVSVSKKEKNRKRRNRKKKKKPQRVRGVSSESSGDREKDSTRSRGSDSPAADVEIEYVTEEPEIYEPNFIFFKRIFEAFKLTDDVKKEKEKEPEKLDKLENSAAPKKKGFEEEHKDSDDDSSDDEQEKKPEAPKLSKKKLRRMNRFTVAELKQLVARPDVVEMHDVTAQDPKLLVHLKATRNSVPVPRHWCFKRKYLQGKRGIEKPPFELPDFIKRTGIQEMREALQEKEEQKTMKSKMREKVRPKMGKIDIDYQKLHDAFFKWQTKPKLTIHGDLYYEGKEFETRLKEKKPGDLSDELRISLGMPVGPNAHKVPPPWLIAMQRYGPPPSYPNLKIPGLNSPIPESCSFGYHAGGWGKPPVDETGKPLYGDVFGTNAAEFQTKTEEEEIDRTPWGELEPSDEESSEEEEEEESDEDKPDETGFITPADSGLITPGGFSSVPAGMETPELIELRKKKIEEAMDGSETPQLFTVLPEKRTATVGGAMMGSTHIYDMSTVMSRKGPAPELQGVEVALAPEELELDPMAMTQKYEEHVREQQAQVEKEDFSDMVAEHAAKQKQKKRKAQPQDSRGGSKKYKEFKF |  |  | 5 | 1 | 5 | 1 |  |  |  | 
ESRP2 (protein, UniProt Q9H6T0 1-727, looked up) Epithelial splicing …: MTPPPPPPPPPGPDPAADPAADPCPWPGSLVVLFGATAGALGRDLGSDETDLILLVWQVVEPRSRQVGTLHKSLVRAEAAALSTQCREASGLSADSLARAEPLDKVLQQFSQLVNGDVALLGGGPYMLCTDGQQLLRQVLHPEASRKNLVLPDMFFSFYDLRREFHMQHPSTCPARDLTVATMAQGLGLETDATEDDFGVWEVKTMVAVILHLLKEPSSQLFSKPEVIKQKYETGPCSDSTVPCPYSSKADVVDSETVVRARGLPWQSSDQDVARFFKGLNVARGGVALCLNAQGRRNGEALIRFVDSEQRDLALQRHKHHMGVRYIEVYKATGEEFVKIAGGTSLEVARFLSREDQVILRLRGLPFSAGPTDVLGFLGPECPVTGGTEGLLFVRHPDGRPTGDAFALFACEELAQAALRRHKGMLGKRYIELFRSTAAEVQQVLNRYASGPLLPTLTAPLLPIPFPLAPGTGRDCVRLRGLPYTATIEDILSFLGEAAADIRPHGVHMVLNQQGRPSGDAFIQMTSAERALAAAQRCHKKVMKERYVEVVPCSTEEMSRVLMGGTLGRSGMSPPPCKLPCLSPPTYTTFQATPTLIPTETAALYPSSALLPAARVPAAPTPVAYYPGPATQLYLNYTAYYPSPPVSPTTVGYLTTPTAALASAPTSVLSQSGALVRMQGVPYTAGMKDLLSVFQAYQLPADDYTSLMPVGDPPRTVLQAPKEWVCL | 5 | 6 | 6 | 1 | 8 | 1 |  |  |  | 
